Results taken from patent publication US20250230251A1.

Key:
[1] = molecular target: extracellular matrix (ECM) proteins; assay: ECM (Matrigel) ELISA, 1 µM antibody
[2] = molecular target: extracellular matrix (ECM) proteins; assay: ECM (Matrigel) ELISA, 0.1 µM antibody

ECM score [1]: 1.2
ECM score [2]: 1.2
B1: P21 (antibody, human IgG1, kappa, V domains shown)
VH: QVQLQQSGPGLVKPSETLSLTCTVSGGSISNYYWTWIRQPPGKGLEWIGYISDSGSTNYNPSLKSRVTISVDTSKNQFSLKLSSVTAADTAVYYCARETIVVRGFYFYVMDVWGQGTTVTVSS
VL: AIQLTQSPSSLSASVGDRVTITCRASQGISSALAWYQQRPGKAPKLLIYDASNWESGVPSRFSGSGSGTDFTLTISSLQPEDFATYYCQQFNSYPWTFGQGTKVEIKR
